Each block holds one binder with its values, some of them ahead of it.
B3: H/M BglI chimeric TNFα (human 1-36, murine 37-157) (ligand)
chain: VRSSSRTPSDKPVAHVVANPQAEGQLQWLNRRANALLANGMDLKDNQLVVPADGLYLVYSQVLFKGQGCPDYVLLTHTVSRFAISYQEKVNLLSAVKSPCPKDTPEGAELKPWYEPIYLGGVFQLEKGDQLSAEVNLPKYLDFAESGQVYFGVIAL
notes: Murine range is printed as 37-157 in human-aligned numbering; also called H/MBgl1; Hu/MBgl1
B5: H/M PvuII chimeric TNFα (human 1-125, murine 126-157) (ligand)
chain: VRSSSRTPSDKPVAHVVANPQAEGQLQWLNRRANALLANGVELRDNQLVVPSEGLYLIYSQVLFKGQGCPSTHVLLTHTISRIAVSYQTKVNLLSAIKSPCQRETPEGAEAKPWYEPIYLGGVFQLEKGDQLSAEVNLPKYLDFAESGQVYFGVIAL
notes: also called Hu/M PVu11
B6: H/M HincII chimeric TNFα (human 1-91, murine 92-157) (ligand)
chain: VRSSSRTPSDKPVAHVVANPQAEGQLQWLNRRANALLANGVELRDNQLVVPSEGLYLIYSQVLFKGQGCPSTHVLLTHTISRIAVSYQTKVNLLSAVKSPCPKDTPEGAELKPWYEPIYLGGVFQLEKGDQLSAEVNLPKYLDFAESGQVYFGVIAL
notes: Murine range printed 92-157 (human-aligned); also called Hu/M Hin C l1

Legend:
[1] = target: T1, human TNFα (Tumor Necrosis Factor-alpha), soluble (human, UniProt P01375 77-233); test: ELISA on chimeric/mutant TNFα
T1 construct: Recombinant (R&D 210-TA/CF) in screens; biotinylated in the limited antigen assay; also called hTNFα; H-TNFα
From the text: (§1) In order to define the binding site for different antibodies, a number of residues of hTNFα were mutated using site directed mutagenesis. A panel of antibodies was screened for binding by an ELISA assay. […] Histidine at position 73 was deleted, an example is illustrated in Table 19.

[2] = target: human TNFα R31Q, Q27E mutant (human, UniProt P01375 77-233); test: ELISA on chimeric/mutant TNFα
From the text: as §1

human TNFα R131Q mutant = human TNFα R131Q mutant (human, UniProt P01375 77-233); test: ELISA on chimeric/mutant TNFα
From the text: as §1

[3] = target: T2, human TNFα with histidine 73 deleted (human, UniProt P01375 77-233); test: ELISA on chimeric/mutant TNFα
T2 construct: Deletion of His73 written as two joined ranges; also called His 73del
From the text: as §1

human TNFα R31Q mutant = human TNFα R31Q mutant (human, UniProt P01375 77-233); test: ELISA on chimeric/mutant TNFα
From the text: as §1

p55-hFc (R&D) = target: T3, p55-hFc (R&D) (UniProt P19438 30-211, limits assumed); test: receptor-Fc binding to TNFα constructs
T3 construct: Bought reagent; also called TNFα receptor p55-hFc
T3 sequence (looked up): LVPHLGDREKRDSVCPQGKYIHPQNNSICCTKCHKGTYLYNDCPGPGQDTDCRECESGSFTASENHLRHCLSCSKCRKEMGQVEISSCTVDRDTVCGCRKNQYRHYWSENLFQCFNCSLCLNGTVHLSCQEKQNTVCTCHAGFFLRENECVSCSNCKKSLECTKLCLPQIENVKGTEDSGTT

[4] = target: T4, p75-hFc construct (R&D Systems) (UniProt P20333 23-257); test: receptor-Fc binding to TNFα constructs
T4 construct: Described as similar to etanercept (Enbrel); also called p75s-hFc; Etanercept surrogate
T4 sequence (looked up): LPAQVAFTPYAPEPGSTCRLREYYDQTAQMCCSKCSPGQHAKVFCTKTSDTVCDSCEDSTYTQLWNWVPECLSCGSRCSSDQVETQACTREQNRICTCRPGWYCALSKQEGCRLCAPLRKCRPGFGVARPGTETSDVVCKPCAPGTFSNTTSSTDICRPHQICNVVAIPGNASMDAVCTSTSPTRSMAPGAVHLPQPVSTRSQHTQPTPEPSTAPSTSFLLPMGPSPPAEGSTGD

[5] = target: T1, human TNFα (Tumor Necrosis …); test: cell-based or functional assay
[6] = target: T1, human TNFα (Tumor Necrosis …); test: KinExA, TNFα counted as one trimer
Procedure: (§2) The kinetic measurements of the anti-TNFα antibodies were evaluated using KinExA® and BIACORE® technologies. The KinExA® method involves solution-based determination of formal affinity measurements at equilibrium. To measure the binding kinetics of each human anti-TNFα antibody, two experiments in replicates of three were performed. In both experiments a known concentration of antigen was titrated and a different antibody concentration was added to each antigen titration and allowed to reach binding equilibrium. […] The results were analyzed by dual curve analysis. […] In addition, to negate the possibility of avidity effects, Fab fragments were generated by papain cleavage and the kinetic analysis was repeated (see Table 24).

[7] = target: T1, human TNFα (Tumor Necrosis …); test: KinExA, TNFα counted as three monomers
Procedure: as §2

[8] = target: B3; test: ELISA on chimeric/mutant TNFα
From the text: as §1

[9] = target: B5; test: ELISA on chimeric/mutant TNFα
From the text: as §1

[10] = target: B6; test: ELISA on chimeric/mutant TNFα
From the text: as §1

T2 sequence (P01375 other isoform, or with tags, fused parts or gaps): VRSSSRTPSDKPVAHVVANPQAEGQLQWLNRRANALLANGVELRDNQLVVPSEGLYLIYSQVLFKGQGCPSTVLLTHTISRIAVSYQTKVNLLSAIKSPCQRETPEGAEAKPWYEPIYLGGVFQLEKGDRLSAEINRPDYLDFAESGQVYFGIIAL

- binding result [2]: binds
- binding result (human TNFα R131Q mutant): binds
- binding result [3]: binds
- binding result (human TNFα R31Q mutant): binds
B1: 250 (antibody, human IgG1, V domains shown)
VH: EVQLVESGGGLIQPGGSLRLSCAASGFTVSSNYMSWVRQAPGKGLEWVSVIYSGDRTYYADSVKGRFTISRDNSKNTLYLQMNSLRAEDTAVYYCARGEGGFDYWGQGTLVTVSS
VL: EIVMTQSPATLSVSPGERATLSCRASQSVTSNLAWYQQKPGQAPRLLIHGASIRATGLPARFSGSGSGTEFTLTISSLQSEDFAVYYCQQYNYWWTFGQGTKVEIK
notes: XENOMAX derived, recombinant human IgG1 kappa; also called 250Ab; SC250
- binding result [1]: binds

- binding result [2]: binds
- binding result (human TNFα R131Q mutant): binds
- binding result [3]: binds
- binding result (human TNFα R31Q mutant): binds
B2: 269 (antibody, human IgG1, V domains shown)
VH: EVQLVESGGGLIQPGGSLRLSCAASEFTVSRNYMSWVRQAPGKGLEWVSVIYSGDRTYYADSVKGRFTISRDNSKNTLYLQMNSLRAEDTAVYYCARGEGGFDYWGQGTLVTVSS
VL: EIVMTQSPATLSVSPGERATLSCRASQSVSSNLAWYQQKPGQAPRLLIHGASIRATGLPARFSGSGSGTEFTLTISSLQSEDFAVYYCQQYNYWWTFGQGTKVEIK
notes: XENOMAX derived, recombinant human IgG1 kappa; also called 269Ab; SC269
- binding result [1]: binds

Binder: B3
- binding result (p55-hFc (R&D)): binds
- binding result [4]: binds

B4: 3.2 g1 (antibody, human IgG1, V domains shown)
VH: EVQLVQSGAEVKKPGESLKISCKTSEYSFTSYWIGWVRQMPGKGLEWMGIIYLGDSDTRYSPSFQGQVTISADKSISTAYLQWSSLKASDTAMYYCARSNWGLDYWGQGTLVTVSS
VL: QSVLTQPPSVSGAPGQRVTISCTGSSSNIGAGYDVHWYQQFPGTAPKLLIQGNSNRPSGVPDRFSGSKSGTSASLAITGLQAEDEADYYCQSYDSSLSGSVFGGGTKLTVL
- IC50 1 hr Pre-incubation, TNF induced apoptosis in MCF-7 cells [5]: 93.8 pM
- IC50 18 hr Pre-incubation, TNF induced apoptosis in MCF-7 cells [5]: 38.6 pM

Binder: B5
- binding result (p55-hFc (R&D)): binds
- binding result [4]: binds

Binder: B6
- binding result (p55-hFc (R&D)): binds
- binding result [4]: binds

B7: 299v1 (antibody, human IgG1, V domains shown)
VH: QVQLVESGGGVVQPGRSLRLSCAASGFTFSSYDMHWVRQAPGKGLEWVAVIWSDGSIKYYADSVKGRFTISRDNSKNTLYLQMNSLRAEDTAVYYCAREVESAMGGFYYNGMDVWGQGATVTVSS
VL: DIQMTQSPSSLSASVGDRVTITCRASQGIRIDLGWYQQKPGKAPKRLIYAASTLQSGVPSRFSGSGSGTEFIFTISSLQPEDFASYYCLQHKSYPLTFGGGTKVEIK
notes: XENOMAX derived, recombinant human IgG1 kappa; also called SC299V1
- Kd [6]: 0.63 pM
- Kd (M) High [6]: 9.2e-13 M
- Kd (M) Low [6]: 4.3e-13 M
- Kd [7]: 1.89 pM
- Kd (M) High [7]: 2.76e-12 M
- Kd (M) Low [7]: 1.29e-12 M

- binding result [2]: binds
- binding result (human TNFα R131Q mutant): binds
- binding result [3]: binds
- binding result (human TNFα R31Q mutant): binds
B8: 282 (antibody, human IgG1, V domains shown)
VH: QVQLVESGGGVVQPGRSLRLSCAASGFTVSSYGMHWVRQAPGKGLEWVAVIWSNGSNKYYADSVKGRFTISRDNSKNTLYLQMNSLRAEDTAVYYCARDNGVYVGYAYYYGMDVWGQGTTVTVSS
VL: DIQMTQSPSSLSASVGDRVTITCRASQGIRNDLGWYQQKPGKAPKRLIYAASSLHSGVPSRFSGSGSGTEFTLTISSLQPEDFATYYCLQHNSYPWTFGQGTKVEIK
notes: XENOMAX derived, recombinant human IgG1 kappa; also called 282 Ab; SC282
- binding result [1]: binds

- binding result (human TNFα R131Q mutant): binds
- binding result [8]: binds
- binding result [9]: binds
- binding result [10]: binds
- binding result (human TNFα R31Q mutant): no binding
B9: 291 (antibody, human IgG1, V domains shown)
VH: QVQLVESGGSVVQPGRSLRLSCAASGFTFSNYGIHWVRQAPGKGLEWVAVIWSDGSNKYYADSVKGRFTISRDNSKNTLYLQMNSLRAEDTAVYYCARELPNSGSYSGYYYYYGMDVWGQGTTVTVSS
VL: DIQMTQSPSSLSASVGDRVTITCRASQGIRNDLGWYQQKPGKAPKRLIYAASSLQSGVPSRFSGSGSGTEFTLTISSLQPEDFATYYCLQHCCYPLTFGGGTKVEIK
notes: XENOMAX derived, recombinant human IgG1 kappa; also called 291 Ab; SC291

- binding result (human TNFα R131Q mutant): binds
- binding result [3]: binds
- binding result [8]: binds
- binding result [9]: binds
- binding result [10]: binds
- binding result (human TNFα R31Q mutant): no binding
B10: 313 (antibody, human IgG1, V domains shown)
VH: QVQLVESGGGVVQPGRSLRLSCAASGFTFSNHDIHWVRQAPGKGLEWVAVIWSDGSNKYYADSVKGRFTISRDNSKNTLYLQMNSLRAEDTAVYYCAREKMATIKGYYYYGMDVWGQGTTVTVSS
VL: DIQMTQSPSSLSASVGDRVTITCRASQGIRNDLGWYQQKPGKAPKRLIYAASSLESGVPSRFSGSGSGPEFTLTISSLQPEDFATYYCLQHNSYPLTFGGGTKVEIQ
notes: Recombinant human IgG1 kappa; also called 313 Ab; SC313
- binding result [1]: binds

B11: 4.17 g1 (antibody, human IgG1, V domains shown)
VH: QVQLVESGGGVVQPGRSLRLSCTTSGFTFSNYGMHWVRQAPGKGLEWVAVIWYDGSIKYYVDSVKGRFTISRDNSKNTLYLQMNSLRAEDTAVYYCAREKDCGGDCYSHYGMDVWGQGTTVTVSS
VL: DIQMTQSPSSLSASVGDRVTITCRASQGIRNDLGWYQQKPGKAPKRLIYAASSLQSGVPSRFSGSGSGTEFTLTISSLQPEDFATYYCLQHMSLPLTFGGGTKVEIK
- IC50 1 hr Pre-incubation, TNF induced apoptosis in MCF-7 cells [5]: 256 pM
- IC50 18 hr Pre-incubation, TNF induced apoptosis in MCF-7 cells [5]: 40.4 pM

— patent US20050049402A1 (Amgen, published 2005)
